Assay results reported in publication PMC11480083.
Positions count from the first letter of the chain named. Numbers in names are those of the source.

Key:
[1] = system: O=C(c1ccc(O)cc1O)c1ccc(O)cc1O; test: purified protein; conditions: 4 mM UDP-Glc, 100 mM Kpi pH 8.0, 30 °C
[2] = substrate: O=C(c1ccc(O)cc1O)c1ccc(O)cc1O; test: steady-state kinetics, HPLC; type: biochemical, Gardenia jasminoides; conditions: UDP-Glc donor
[3] = substrate: O=C(c1ccc(O)cc1O)c1ccc(O)cc1O; test: purified protein
[4] = substrate: O=C(c1ccc(O)cc1O)c1ccc(O)cc1O; test: steady-state kinetics, HPLC; type: biochemical, Citrus japonica; conditions: UDP-Glc donor
[5] = substrate: O=C(c1ccc(O)cc1O)c1ccc(O)cc1O; test: steady-state kinetics, HPLC; type: biochemical, Nelumbo nucifera; conditions: UDP-Glc donor

What does the source list for MiCGT (Mangifera indica)?
Km [1]: 430 ± 155 µM; kcat [1]: 0.00848 ± 0.00147 s⁻¹

With MiCGT (Mangifera indica; E152Q) as the molecule, how does the Km [1] read?
The Km was 176 ± 25 µM.

Which results are given for “MiCGT (Mangifera indica; E152Q/S122P/V190D)”?
Km [1]: 36 ± 3 µM; kcat [1]: 0.1579 ± 0.00172 s⁻¹

Which Km [1] does the source give for MiCGT (Mangifera indica; E152Q/V190D) here?
Its Km is 189 ± 21 µM.

How did the Km [1] turn out when MiCGT (Mangifera indica; M148A) was run?
Its Km is 269 ± 49 µM.

How did the Km [1] turn out when “MiCGT (Mangifera indica; M148A/S121D/V190T)” was run?
The Km was 249 ± 30 µM.

What about the kcat [1] of the same molecule?
Its kcat is 0.51143 ± 0.0157 s⁻¹.

MiCGT (Mangifera indica; M148A/V190T) was tested. Which Km [1] did it give?
The Km was 317 ± 100 µM.

B1: GjGTa (Gardenia jasminoides; A142M/F116S/F117P) (protein)
chain: MENTLVLYPAPGIGHMISMLELAKLILRHYSNKFSRIHILINTGFRDMKSTYLDHISSTNPSIVVHQFPFIQADLSSSLSPPAIGFKFIRKNAPNVHHALQEISKTSSIRALIIDSPCTSAMPYSNNLGIPVYYFFTSGAAMVALFLYFPTIHKQTSESFKDLVQTKFDVPGLPPIPATQMPEPVLDRDDPAYDDILYYSVHLPKSSGIIVNTFDELEPIALKAITDGLCVPDAPTPPLYNIGPLIADADSRPAIDGDKGIDLDQSDCFSWLDRQPDQCVVFLCFGSRGTFSVEQIKEIAKGLERSGKRFLWVVKKPLRNNKSKQVEGSGGFEIDSILPERFLEKTKGIGLVVKSWIPQLQVLRHPAVGGFVTHCGWNSTLEAVVAGVPLVAWPLHAEQHVNMAALVQDMKMAIPVEQGDDGIVRGEEVEKRVRELMDSERGRELRKLSQKTRDIAAESGVHLGSSSTALASLIHVVFGN
Which results are given for B1?
Km [2]: 12 ± 0.5 µM; kcat [2]: 0.00035 ± 1.2e-06 s⁻¹

B2: FcCGT (Citrus japonica; A189D/T149Q) (protein)
chain: MSDSGGFDSHPHVALIPSAGMGHLTPFLRLAASLVQHHCRVTLITTYPTVSLAETQHVSHFLSAYPQVTEKRFHLLPFDPNSANATDPFFLRWEAIRRSAHLLAPLLSPPLSALITDVTLISAVLPVTINLHLPNYVLFTASARMFSLQASFPAIVASKSTSSGSVEFDDDFIEIPGLPPIPLSSVPPDVMDSKSLFATSFLENGNSFVKSNGVLINSFDALEADTLVALNGRRVVAGLPPVYAVGPLLPCEFEKRDDPSTSLILKWLDDQPEGSVVYVSFGSRLALSMEQTKELGNGLLSSGCRFLWVVKGKTVDKEDEESLKNVLGHELMEKIKDQGLVVKNWVDQDKVLSHRAVGGFVSHGGWNSLVEAARHGVPVLVWPQFGDQKINAEAVESAGLGMWVRSWGWGTELRAKGDEIGLKIKDLMANDFLREQAKRIEEEARKAIGVGGSSERTFKELIDKWKCNNNTH
Which results are given for B2?
Km [3]: 375 ± 72 µM; kcat [3]: 0.04075 ± 0.0016 s⁻¹

B3: FcCGT (Citrus japonica; M145A/V118D) (protein)
chain: B2 chain with V118D, M145A, Q149T, D189A
What does the source list for B3?
Km [4]: 1064 ± 151 µM; kcat [4]: 0.05323 ± 0.00218 s⁻¹

B4: NnGT (Nelumbo nucifera; C156Q/L197D/S126P) (protein)
chain: MEMSSSSDLQILPPHVALLPSSGMGHLVPFVRLAAALARRNCLVTFITTHPTVSLSESRLVSRLLSAFPHVTPLEFHLLPLDHSTANSKDPFFLQFEAIRRSAHLLSPLLSSCSDPPLSALITDVPLASAFISITDELRLPNYILFTSSAWMLSLQLNFPTFVVNTSTNLSGGSATASDDIEIPGVPPVPKSWLPPDLLDLSNLFTTQFMANGQELIKSNGILINTFGNAEQATVAALNEGKVVNGLPPVTKIGPLAPCEFEKGSSVEWLDGQPAGSVLYVSFGSRTAMSREQIRELGDGLVRSGCRFLWVVKDKKVDREDEEELGGIVGQELMERMKDNGLVVKNWVDQGVVLAHPAVGGFLSHCGWNSVTEAAWNGVPVLAWPQHGDQSINAQVMEKSGIGMWVKSWGWGRTEVVKGEEIGQKIGEMMGNDRLKAQAANIREESRRAVEVGGGSYKELEGIIEKWKISRI
Which results are given for B4?
Km [5]: 319 ± 61 µM; kcat [5]: 0.00872 ± 0.000567 s⁻¹
